In patent US20230265217A1 (TWIST BIOSCIENCE, published 2023):
Like-named read-outs stand apart in the source and are kept apart here.

B1: 7-09 (VHH)
VHH: EVQLVESGGGLVQPGGSLRLSCAASGGTFSSIGMGWFRQAPGKEREFVAAISWDGGATAYADSVKGRFTISADNSKNTAYLQMNSLKPEDTAVYYCAKEDVGKPFDWGQGTLVTVSS
notes: also called 7-9
B2: 5A-1 (VHH)
VHH: EVQLVESGGGLVQPGGSLRLSCAASGGTFSSIGMGWFRQAPGKEREFVAAISWDGGATAYADSVKGRFTISADNSKNTAYLQMNSLKPEDTAVYYCAKEDVGKPFDWGQGTLVTVSS
B3: 8-3 (VHH, not shown: a dimerising Fc or GST)
VHH: EVQLVESGGGLVQPGGSLRLSCAASGTTLDYYAMGWFRQAPGKEREFVAAISWSGGSTAYADSVKGRFTISADNSKNTAYLQMNSLKPEDTAVYYCAREDYYDSSGYSWGQGTLVTVSS
B4: 6A-63 (VHH)
VHH: EVQLVESGGGLVQPGGSLRLSCAASGQTFNMGWFRQAPGKEREFVAAIGSGGSTSYADSVKGRFTISADNSKNTAYLQMNSLKPEDTAVYYCWRLGNDYFDYWGQGTLVTVSS
B5: 6A-3 (VHH)
VHH: EVQLVESGGGLVQPGGSLRLSCAASGFTFSPSWMGWFRQAPGKEREFVATINEYGGRNYADSVKGRFTISADNSKNTAYLQMNSLKPEDTAVYYCARVDRDFDYWGQGTLVTVSS
B6: 7-24 (VHH, not shown: a dimerising Fc or GST)
VHH: EVQLVESGGGLVQPGGSLRLSCAASGFTFSRHAMNWFRQAPGKEREFVSTITGSGGSTNYADSVKGRFTISADNSKNTAYLQMNSLKPEDTAVYYCAREVGLYYYGSGSSSRRLLGRIDYYFDYWGQGTLVTVSS
B7: 8-10 (VHH, not shown: a dimerising Fc or GST)
VHH: EVQLVESGGGLVQPGGSLRLSCAASGFIGNYHAMGWFRQAPGKEREFVAAVTWSGGTTNYADSVKGRFTISADNSKNTAYLQMNSLKPEDTAVYYCAREGYYYDSSGYPYYFDYWGQGTLVTVSS
B8: 3-24 (VHH, not shown: a dimerising Fc or GST)
VHH: EVQLVESGGGLVQPGGSLRLSCAASGINFSRYGMGWFRQAPGKEREFVASITYLGRTNYADSVKGRFTISADNSKNTAYLQMNSLKPEDTAVYYCALRVRPYGQYDWGQGTLVTVSS
B9: 7-30 (VHH, not shown: a dimerising Fc or GST)
VHH: EVQLVESGGGLVQPGGSLRLSCAASGRTFSMHAMGWFRQAPGKEREFVASISSQGRTNYADSVKGRFTISADNSKNTAYLQMNSLKPEDTAVYYCAAEVRNGSDYLPIDWGQGTLVTVSS
B10: 3-17 (VHH, not shown: a dimerising Fc or GST)
VHH: EVQLVESGGGLVQPGGSLRLSCAASGRTSSSAVMGWFRQAPGKEREFVAAINRGGSTIYVDSVKGRFTISADNSKNTAYLQMNSLKPEDTAVYYCATGPYRSYFARSYLWGQGTLVTVSS
B11: 7-29 (VHH, not shown: a dimerising Fc or GST)
VHH: EVQLVESGGGLVQPGGSLRLSCAASGRTHSIYPMGWFRQAPGKEREFVASITSYGDTNYADSVKGRFTISADNSKNTAYLQMNSLKPEDTAVYYCAARRWIPPGPIWGQGTLVTVSS
B12: 7-17 (VHH, not shown: a dimerising Fc or GST)
VHH: EVQLVESGGGLVQPGGSLRLSCAASGFSLDYYGMGWFRQAPGKEREFVAAITSGGTPHYADSVKGRFTISADNSKNTAYLQMNSLKPEDTAVYYCASAYNPGIGYDWGQGTLVTVSS
B13: 7-26 (VHH)
VHH: EVQLVESGGGLVQPGGSLRLSCAASGSTFSINAMGWFRQAPGKEREFVAGITSSGGYTNYADSVKGRFTISADNSKNTAYLQMNSLKPEDTAVYYCAADGVPEYSDYASGPVWGQGTLVTVSS
B14: 3-31 (VHH)
VHH: EVQLVESGGGLVQPGGSLRLSCAASGSTFSINAMGWFRQAPGKEREFVAGITSSGGYTNYADSVKGRFTISADNSKNTAYLQMNSLKPEDTAVYYCAADGVPEYSDYASGPVWGQGTLVTVSS
notes: also called 3-31_ExpiCHO
B15: 7-8 (VHH)
VHH: EVQLVESGGGLVQPGGSLRLSCAASGSTFTINAMGWFRQAPGKEREFVSGISHNGGTTNYADSVKGRFTISADNSKNTAYLQMNSLKPEDTAVYYCAADGVPEYSDYASGPVWGQGTLVTVSS
B16: 7-37 (VHH)
VHH: EVQLVESGGGLVQPGGSLRLSCAASGSTLSINAMGWFRQAPGKEREFVAGITRSGSVTNYADSVKGRFTISADNSKNTAYLQMNSLKPEDTAVYYCAADGVPEYSDYASGPVWGQGTLVTVSS
B17: 3-28 (VHH, not shown: a dimerising Fc or GST)
VHH: EVQLVESGGGLVQPGGSLRLSCAASGFTFRRYDMGWFRQAPGKEREFVSAISGGLAYYADSVKGRFTISADNSKNTAYLQMNSLKPEDTAVYYCAVDLSGDAVYDWGQGTLVTVSS
B18: 7-14 (VHH)
VHH: EVQLVESGGGLVQPGGSLRLSCAASGSTFSINAMGWFRQAPGKEREFVAGISRGGTTNYADSVKGRFTISADNSKNTAYLQMNSLKPEDTAVYYCAADGVPEYSDYASGPVWGQGTLVTVSS
B19: 7-32 (VHH)
VHH: EVQLVESGGGLVQPGGSLRLSCAASGSTFSVNAMGWFRQAPGKEREFVAGVTRGGYTNYADSVKGRFTISADNSKNTAYLQMNSLKPEDTAVYYCAADGVPEYSDYASGPVWGQGTLVTVSS
B20: 8-06 (VHH, not shown: a dimerising Fc or GST)
VHH: EVQLVESGGGLVQPGGSLRLSCAASGFTFDYYAMGWFRQAPGKEREFVSAIDSEGRTSYADSVKGRFTISADNSKNTAYLQMNSLKPEDTAVYYCARWGPFDIWGQGTLVTVSS
notes: also called 8-6
B21: 7-21 (VHH)
VHH: EVQLVESGGGLVQPGGSLRLSCAASGRTISRYTMGWFRQAPGKEREFVASITSGGSTAYADSVKGRFTISADNSKNTAYLQMNSLKPEDTAVYYCAKEDVGKPFDWGQGTLVTVSS
B22: 7-22 (VHH, not shown: a dimerising Fc or GST)
VHH: EVQLVESGGGLVQPGGSLRLSCAASGRTITRYTMGWFRQAPGKEREFVASITSGGSTAYADSVKGRFTISADNSKNTAYLQMNSLKPEDTAVYYCAKQDVGKPFDWGQGTLVTVSS
B23: 7-45 (VHH)
VHH: EVQLVESGGGLVQPGGSLRLSCAASGRTLSRYTMGWFRQAPGKEREFVASITSGGSTNYADSVKGRFTISADNSKNTAYLQMNSLKPEDTAVYYCAKEDVGKPFDWGQGTLVTVSS
B24: 7-41 (VHH)
VHH: EVQLVESGGGLVQPGGSLRLSCAASGRTFSTYVMGWFRQAPGKEREFVASISSRGITHYADSVKGRFTISADNSKNTAYLQMNSLKPEDTAVYYCAKEDVGKPFDWGQGTLVTVSS
B25: 7-40 (VHH)
VHH: EVQLVESGGGLVQPGGSLRLSCAASGRTFRRYTMGWFRQAPGKEREFVASITKFGSTNYADSVKGRFTISADNSKNTAYLQMNSLKPEDTAVYYCAKEDVGKPFDWGQGTLVTVSS
B26: 7-6 (VHH, not shown: a dimerising Fc or GST)
VHH: EVQLVESGGGLVQPGGSLRLSCAASGRIFYPMGWFRQAPGKEREFVAAVRWSSTGIYYTQYADSVKGRFTISADNSKNTAYLQMNSLKPEDTAVYYCAAALSEVWRGSENLREGYDWGQGTLVTVSS
B27: 7-31 (VHH, not shown: a dimerising Fc or GST)
VHH: EVQLVESGGGLVQPGGSLRLSCAASGFTFSNYSMGWFRQAPGKEREFVAAIHWNGDSTAYADSVKGRFTISADNSKNTAYLQMNSLKPEDTAVYYCAAQTEDSAQYIWGQGTLVTVSS

Key:
SARS-CoV-2 S1 (Acro) [1] = target: T1, SARS-CoV-2 S1 (Acro) (SARS-CoV-2, UniProt P0DTC2 16-685); experiment: Carterra SPR
T1 construct: also called Acro S1

SARS-CoV-2 S1 (Acro) [2] = target: T1, SARS-CoV-2 S1 (Acro); experiment: Carterra SPR; remark: listed apart in the source
SARS-CoV-2 S1 monomer = SARS-CoV-2 S1 monomer (SARS-CoV-2, UniProt P0DTC2 16-685); experiment: binding kinetics, Carterra SPR

Binder	Kd (SARS-CoV-2 S1 (Acro) [1])	Kd (SARS-CoV-2 S1 (Acro) [2])	other results
B1	0.0241 µM	0.0241 µM	–
B2	–	0.0066 µM	–
B3	18.4 µM	–	–
B4	–	0.0464 µM	–
B5	–	0.0315 µM	–
B6	4260 µM	–	–
B7	658 µM	–	–
B8	–	–	binding result (SARS-CoV-2 S1 (Acro) [1]): no binding
B9	0.0487 µM	0.0487 µM	–
B10	0.141 µM	–	–
B11	0.0312 µM	–	–
B12	0.0604 µM	–	–
B13	0.0248 µM	0.0248 µM	Kd (SARS-CoV-2 S1 monomer): 0.00363 µM
B14	0.021 µM	0.021 µM	Kd (SARS-CoV-2 S1 monomer): 0.00591 µM
B15	0.0528 µM	–	–
B16	0.0216 µM	0.0216 µM	Kd (SARS-CoV-2 S1 monomer): 0.0171 µM; koff (SARS-CoV-2 S1 monomer): 0.000528 s⁻¹; kon (SARS-CoV-2 S1 monomer): 30800 M⁻¹ s⁻¹
B17	0.0522 µM	0.0522 µM	–
B18	0.0208 µM	0.0208 µM	Kd (SARS-CoV-2 S1 monomer): 0.00957 µM; koff (SARS-CoV-2 S1 monomer): 0.000404 s⁻¹; kon (SARS-CoV-2 S1 monomer): 42200 M⁻¹ s⁻¹
B19	0.0485 µM	–	–
B20	0.0377 µM	–	–
B21	0.0271 µM	–	–
B22	0.0409 µM	–	–
B23	0.0363 µM	–	–
B24	0.0481 µM	–	–
B25	85.6 µM	–	–
B26	0.0424 µM	–	–
B27	0.228 µM	–	–
